Experiment: yeast display, Sf9 membrane polyspecificity reagent, FACS + sequencing; frameworks hold sequencing errors
In short: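 Sorting gates, low and high (top ~1%), were placed on anti-HA fluorescence to track expression and on streptavidin fluorescence to track reagent binding. A clone's polyreactivity label is taken from the gate it came out of. The reagent was 10% biotinylated, detergent-solubilized Sf9 membrane, applied for 1 hour at 4 °C to galactose-induced yeast display cells.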

QVQLVESGGGLVQAGGSLRLSCAASGSTLTSNAMGWYRQAPGKERELVAAIRSGGSTNYADSVKGRFTISRDNAKNTVYLQMNSLKPEDTAVYYCNKDVLWQGYGYSRVSYDYWGQGTQVTVSS
polyreactivity (PSR sort gate): low polyreactivity

QVQLVESGGGLVQAGGSLRLSCAASGSTLVDYAMGWYRQAPGKERELVATISFRGGSTYYADSVKGRCTISRDNAKNTVYLQMNSLKPEDTAVYYCAAEYGPSLYYYYGHAAYAYGYWGQGTQVTVSS
polyreactivity (PSR sort gate): low polyreactivity

QVQLVESGGGLVQAGGSLRLSCAASGSTLVDYAMGWYRQAPRKERELVATISFRGGSTYYADSVKGRFTISRDNAKNTVYLQMNSLKPEDTAVYYCAREYGDGYEYWGQGTQVTVSS
polyreactivity (PSR sort gate): low polyreactivity

QVQLVESGGGLVQAGGSLRLSCAASGSTLVGNAMGWYRQAPRKERELVATISKRSGSTYYADSVKGRFTISRDNAKNTVYLQMNSLKPEDSAVYYCNADDVRRRAYRIGSYWGYDYWGQGTQVTVSS
polyreactivity (PSR sort gate): low polyreactivity

QVQLVESGGGLVQAGGSLRLSCAASGSTLVGNTMGWYRQSPGKERELVAAITGVGSTNYADSVKGRFTISRDNAKNTVYLQMNSLKPEDTAVYYCAAQYSYTYIVSYLYDMDYWGQGTQVTVSS
polyreactivity (PSR sort gate): low polyreactivity

QVQLVESGGGLVQAGGSLRLSCAASGSTLVIYAMGWYRQAPGKERELVAAISRGGTTYYADSVKGRFTISRDNAKNTVYLQMNSLKPEDTAVYYCAADARVKRYYFRKSGYWGQGTQVTVSS
polyreactivity (PSR sort gate): high polyreactivity

QVQLVESGGGLVQAGGSLRLSCAASGSTLVNNAMGWDRQAPGKEREWVAAITFSGGTTYYADSVKGRFTISRDNAKNTVYLQMNSLKPEDTAVYYCAAEIWLEYVGYDYWGQGTQVTVSS
polyreactivity (PSR sort gate): high polyreactivity

QVQLVESGGGLVQAGGSLRLSCAASGSTLVRYALGLSRQAPGKERELVAAISRSGSSTYYADSVKGRFTISRDIAKNTVYLQMNSLKPEDTAVYYCATDRYPTTPYYNYRFGYWGQGTQVTVSS
polyreactivity (PSR sort gate): high polyreactivity

QVQLVESGGGLVQAGGSLRLSCAASGSTLVRYAMGWYRQAPGKEREFVAAISWTGGSTYYADSVKGRFTISRDYAKNTVYLQMNSLKPEDTAVYYCSAEYFRGPSYSYWGQGTQVTVSS
polyreactivity (PSR sort gate): high polyreactivity

QVQLVESGGGLVQAGGSLRLSCAASGSTLVTYTMGWYRQAPGKERELVASISWRGGSTYYADSVKGRFTISRDNAKNTVYLQMNSLKPEDTAVYYCNAVYYLWDYDYWGQGTQVTVSS
polyreactivity (PSR sort gate): low polyreactivity

QVQLVESGGGLVQAGGSLRLSCAASGSTLYAYAVGWYRQAPGKERELVAAIRTGGSTYYADSVKGRFTISRDNAKNTVYLQMNRLIPEDTAVYYCAADHGYQYGYWGQGTQVTVSS
polyreactivity (PSR sort gate): low polyreactivity

QVQLVESGGGLVQAGGSLRLSCAASGSTLYRNAMGWYRQAPGKEREFVAAISWSGGSTYYADSVKGRFTISRDNAKNTVYLQMNSLKPEDTAVYYCNARGPTVYETHNYWGQGTQVTVSS
polyreactivity (PSR sort gate): low polyreactivity

QVQLVESGGGLVQAGGSLRLSCAASGSTLYRYAMGWYRQAPGKERELVAAISSAGSTHYADSVKGRFTISRDNAKNNVYLQMKSLKPEDTAVYYCNAKGYLHRSRYDYWGQGTQVTVSS
polyreactivity (PSR sort gate): high polyreactivity

QVQLVESGGGLVQAGGSLRLSCAASGSTLYSYAMGWYRQAPGKERELVAAIRRDSGRTYYADSVKGRFTISRDNAKNTVYLQMNSLKPEDTAVYYCAVRKQYSGRYYRAYDYWGQGTQVTVSS
polyreactivity (PSR sort gate): high polyreactivity

QVQLVESGGGLVQAGGSLRLSCAASGSTMGRYAMGWYRQAPGKERELVASITWSDDSTYYADSVKGRFTISRDNAKNTVYLQMNSLKPEDTAVYYCAAAGNLYTYRFYYWGQGTQVTVSS
polyreactivity (PSR sort gate): low polyreactivity

QVQLVESGGGLVQAGGSLRLSCAASGSTMLDYAMGWYRQAPGKERELVAAISWSGGSTRYADSVKGRFTISRDNAKNTVFLQMNSLKPEDTAVYYCAATGFSYRYFQTRDYWGQGTQVTVSS
polyreactivity (PSR sort gate): high polyreactivity

QVQLVESGGGLVQAGGSLRLSCAASGSTRYWYAMGWYRQAPGKEREFFAGISIGGRTNYADSVKGRFTISRDNAKNTVYLQMNSLKPEDTAVYYCNAENTYVGSRYRPYNYWGQGTLVTVSS
polyreactivity (PSR sort gate): low polyreactivity

QVQLVESGGGLVQAGGSLRLSCAASGSTSAWYAMGWYRQAPGKERQLVATISSRGGSTYYADSVKGRFTISRDNAKNTVYLQMNSLKPEDTAVYYCAARIGATYWVDWTHRAYDYWGQGTQVTVSS
polyreactivity (PSR sort gate): high polyreactivity

QVQLVESGGGLVQAGGSLRLSCAASGSTSCIYAMGCYRQAPGKERELVAAISGSGVSTYYADSVKGRFTISRDNAKNTVYLQMNSLKPEDTAVYYCAAGYYGNGVFEYDYWGQGTQVTVSS
polyreactivity (PSR sort gate): low polyreactivity

QVQLVESGGGLVQAGGSLRLSCAASGSTSCSNAMGWSRQAPGKERELVAAITTGASTYYADSVKGRFTISRDNAKNTVYLQMNSLKPEDTAVYYCAADPWVLWSYYYWGQGTQVTVSS
polyreactivity (PSR sort gate): low polyreactivity

QVQLVESGGGLVQAGGSLRLSCAASGSTSDINAMGWYRQAPGKERELVAVITDSSNTDYADSVKGRFTISRDNAKNTVYLQMNSLKPEDTAVYYCAADRDEPDPYDYWGQGTQVTVSS
polyreactivity (PSR sort gate): low polyreactivity

QVQLVESGGGLVQAGGSLRLSCAASGSTSGIYAMGWYRQAPGKERELVAAIDTSGGSTYADSVKGRFTISRDNAKNTVYLQMNSLKPEDTAVYYCAKPFSSNSWSHGYWGQGTQVTVSS
polyreactivity (PSR sort gate): low polyreactivity

QVQLVESGGGLVQAGGSLRLSCAASGSTSGIYAMGWYRQAPGKERELVARINSGGSTYYADSVKGRFTISRDNAKNTVYLQMNSLKPEDTAVYYCNRVPNKYGRPIDSRWRGDYWGQGTQVTVSS
polyreactivity (PSR sort gate): low polyreactivity

QVQLVESGGGLVQAGGSLRLSCAASGSTSGKNAMGWYRQAPGKERELVAVITYSGSRTYYADSVKGRFTISRDNAKNTVYLQMNSLKPEDTAVYYCAAVGGGVSFRGNYWGQGTQVTVSS
polyreactivity (PSR sort gate): high polyreactivity

QVQLVESGGGLVQAGGSLRLSCAASGSTSGRNVMGWYIQAPGKERELVAAISSRGGSTYYADSVKGRFTISRDNAKNTVYLQMNSLKPEDTAVYYCAARYGAYSGYDYWGQGTQVTVSS
polyreactivity (PSR sort gate): high polyreactivity

QVQLVESGGGLVQAGGSLRLSCAASGSTSHQYAMGWYRQAPGKERELVAAISSRAGSTYYADSVKGRFTISRDNAKNTVYLQMNSLKPEDTAFYYCAADADSWKWGYDYWGQGTQVTVSS
polyreactivity (PSR sort gate): low polyreactivity

QVQLVESGGGLVQAGGSLRLSCAASGSTSLINVMGWYRQAPGKERELVAAISSSDGSTYYADSVKGRFTISRDNAKNTVYLQMNSLKPEDTAVYYCNADYYGYYGLMGYWGQGTLVTVSS
polyreactivity (PSR sort gate): low polyreactivity

QVQLVESGGGLVQAGGSLRLSCAASGSTSLSYVMGWYRQAPGKERELVASITSSGGSTYYADSVKGRFTISRDNAKNTVYLQMNSLKPEDTAVYYCNARSYIDPFSPTSYYRYYWGQGTQVTVSS
polyreactivity (PSR sort gate): high polyreactivity

QVQLVESGGGLVQAGGSLRLSCAASGSTSMSYVKGWYRQAPGKERELVASITSSGGSTYYADSVKGLFTISRDNAKNTVYLQMNSLKPEDTAVYYCNARSYIYPFSPTSYYRYYWGQGTQVTVSS
polyreactivity (PSR sort gate): high polyreactivity

QVQLVESGGGLVQAGGSLRLSCAASGSTSPAYAMGWYRQAPGKERELVAVITGSGASTYYADSVKGRFTISRDNAKNTVYLQMNSMKPEDTAVYYCAADVGFGVVFYDYWGQGTQVTVSS
polyreactivity (PSR sort gate): low polyreactivity

QVQLVESGGGLVQAGGSLRLSCAASGSTSPGYAMGWYRQAPGKERELVAAITWNGGSTYYADSVKGRFTISRDNAKNTVYLQMNSLKPEDTAVYYCNKLSGYGWRSYGYWGQGTQVTVSS
polyreactivity (PSR sort gate): high polyreactivity

QVQLVESGGGLVQAGGSLRLSCAASGSTSPRNAMGWYRQAPGKERELVAAISSGGRTNYADSVKGRFTISRDNAKNTVYLQMNSLKPEDTAVYYCAAEVQSTYWGQGTQVTVSS
polyreactivity (PSR sort gate): low polyreactivity

QVQLVESGGGLVQAGGSLRLSCAASGSTSQTYTMGWYRQAPGKERELVAAISLRGGRTYYADSVKGRFTISRDNAKNTVYLQMNSLKPEDTAVYYCNRDYRGPYYYWGQGTQVTVSS
polyreactivity (PSR sort gate): high polyreactivity

QVQLVESGGGLVQAGGSLRLSCAASGSTSSPNAMGRYRQAPGKEREFVAAISRSGGSTYYADSVKGRFTISRDNAKNTVYLQMNSLKPEETSVHYCAATVTVFYTRYYYWGQGTQVTVSS
polyreactivity (PSR sort gate): high polyreactivity

QVQLVESGGGLVQAGGSLRLSCAASGSTSSPYAMGWYRQAPGKERELVAAITSGGSTNYADSVKGRFTISRDNAKNTVYLEMNSLKPEDTAVYYCATRIYGWSFGSWYKYDYRGQGTQVTVSS
polyreactivity (PSR sort gate): low polyreactivity

QVQLVESGGGLVQAGGSLRLSCAASGSTSSVYTMGWYRPAPGKERELVASISIRGTRTYADSVKGRFTISRDNAKNTVYLQMNSLKPEDTAVYYCAARYPWYVYTIYGYWGQGTQVTVSS
polyreactivity (PSR sort gate): high polyreactivity

QVQLVESGGGLVQAGGSLRLSCAASGSTSSYYAMGWYRQAPGKERELVAAIRTSGRTYYADSVKGRFTISRDNAKNTVYLQMNSLKPEDTAVYYCNAVYVSPDYDSWGQGTQVTVSS
polyreactivity (PSR sort gate): high polyreactivity

QVQLVESGGGLVQAGGSLRLSCAASGSTSTDYAMGWYRQAPGKERELVAAISYGGGSTYYADSVKGRFTISRDNAKNTVYLQMNSLKPEDTAVYYCAAVARFPKYRYYSWGQGTQVTVSS
polyreactivity (PSR sort gate): high polyreactivity

QVQLVESGGGLVQAGGSLRLSCAASGSTSTQYAMGWYRQAPGKERELVAGITQSGGSTYYADSVKGRFTISRDNAKNTVYLQMNSLKPEDTAVYYCAAPPGYTGRYDYYYWGQGTQVTVSS
polyreactivity (PSR sort gate): high polyreactivity

QVQLVESGGGLVQAGGSLRLSCAASGSTSTYNAMGWYRQAPGKERELVAAITESGGSTYYADSVKGRFTISRDNAKNTVYLQMNSLKPEDTAVYYCAADLTYTYEFWGQGTQVTVSS
polyreactivity (PSR sort gate): low polyreactivity

QVQLVESGGGLVQAGGSLRLSCAASGSTSVDYTMGWSRQAPGKERELVAAIDYNGDSTYYADSVKGRFTISRDNAKITVYLQMNRLKPEDTAVYYCADDVWTLDPDEYDYWGQGTQVTVSS
polyreactivity (PSR sort gate): low polyreactivity

QVQLVESGGGLVQAGGSLRLSCAASGSTSWLNAMGWYRQATGKERELVAAISVNTGSTYYADSVKGRFTISRDNAKNTVYLQMNSLKPEDTAVYYCAARGRGHGTTPNDYWGQGTQVTVSS
polyreactivity (PSR sort gate): high polyreactivity

QVQLVESGGGLVQAGGSLRLSCAASGSTSYNAMGWYRQAPGKERELVAAISDGGGSTYYADSVKGRFTISRDNAKNTVYLQMNSLKPEDTAVYYCAADTITGDGYWAQGTQVTVSS
polyreactivity (PSR sort gate): low polyreactivity
